Reference: patent US8697369B2, “Method for screening a test substance for activating a receptor associated with FGF 21 activity” (National Institute of Advanced Industrial Science and …, priority 2007, dated 2014)

Molecular target: T1, betaKlotho-expressing BaF3 cells (Mus musculus, UniProt Q99N32)
T1 construct: the entire-length cDNA of mouse betaKlotho was cloned into an animal cell expression vector; expressed in transfected cells; host or cells: BaF3 (mouse pro-B) cells
T1 sequence (Q99N32 1-1043): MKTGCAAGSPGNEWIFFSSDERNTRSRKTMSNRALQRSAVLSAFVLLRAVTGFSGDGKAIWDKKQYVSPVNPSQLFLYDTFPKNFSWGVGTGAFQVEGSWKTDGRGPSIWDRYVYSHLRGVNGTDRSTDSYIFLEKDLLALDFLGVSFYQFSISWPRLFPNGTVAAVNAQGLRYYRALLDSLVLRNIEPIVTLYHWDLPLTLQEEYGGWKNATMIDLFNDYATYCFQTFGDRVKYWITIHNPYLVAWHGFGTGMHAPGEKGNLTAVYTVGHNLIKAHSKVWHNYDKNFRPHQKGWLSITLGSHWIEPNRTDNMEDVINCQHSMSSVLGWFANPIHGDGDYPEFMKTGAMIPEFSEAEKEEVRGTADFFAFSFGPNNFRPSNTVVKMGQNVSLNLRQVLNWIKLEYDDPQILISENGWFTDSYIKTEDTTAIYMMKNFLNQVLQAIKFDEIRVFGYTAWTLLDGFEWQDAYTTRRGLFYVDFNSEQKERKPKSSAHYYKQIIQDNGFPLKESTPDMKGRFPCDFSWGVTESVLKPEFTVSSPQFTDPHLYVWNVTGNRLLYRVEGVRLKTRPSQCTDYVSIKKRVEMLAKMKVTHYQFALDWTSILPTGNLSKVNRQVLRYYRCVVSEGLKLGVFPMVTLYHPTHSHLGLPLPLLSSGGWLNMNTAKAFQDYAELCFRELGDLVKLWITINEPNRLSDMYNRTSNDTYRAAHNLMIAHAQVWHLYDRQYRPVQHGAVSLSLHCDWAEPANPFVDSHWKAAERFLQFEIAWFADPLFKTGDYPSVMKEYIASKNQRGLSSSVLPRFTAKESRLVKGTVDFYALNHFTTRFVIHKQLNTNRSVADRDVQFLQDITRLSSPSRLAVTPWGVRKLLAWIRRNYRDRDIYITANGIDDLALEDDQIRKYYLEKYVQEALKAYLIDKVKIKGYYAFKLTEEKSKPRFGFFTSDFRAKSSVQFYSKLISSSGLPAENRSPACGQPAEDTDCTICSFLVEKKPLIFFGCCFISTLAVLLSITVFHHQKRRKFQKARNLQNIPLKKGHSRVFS
Assay: DNA synthesis (thymidine incorporation) in BaF3 cells expressing only betaKlotho
Format: cell-based
Conditions: presence or absence of heparin
Experimental: A commonly used measurement method is a cell growth stimulating activity measurement method described in Ornitz, D. M., Xu, J., Colvin, J. S., McEwen, D. G., MacArthur, C. A., Coulier, F., Gao, G. and Goldfarb, M. (1996) Receptor specificity of the fibroblast growth factor family. J Biol Chem, 271, 15292-15297. The summary thereof is as follows. FGF used as a measurement target is added to a culture solution containing a cultured cell having an FGF receptor on the surface thereof, and the obtained mixture is cultured for a certain period of time. Thereafter, a labeled thymidine is added to the culture solution, followed by further culture for a certain period of time. By measuring the amount of the labeled thymidine incorporated into polymeric DNA during the culture, the degree of FGF to activate DNA synthesis is evaluated. (In the present invention as well, this method was adopted when the activity of FGF21 was measured in Examples 4, 5, 6, 8, 9, and 10.) […]
Immediately after inoculation, BaF3 cells that had expressed each clone and only FGFR1c were stimulated by addition of FGF21 (open bar) or PBS (filled bar) used as a control in the presence of heparin, and they were then cultured for 42 hours. […] Thereafter, the amount of thymidine incorporated into the cells was measured, so as to evaluate DNA synthesis. […]

B1: FGF21: fibroblast growth factor 21; mouse-derived protein used in Examples 1-7 and 10-13 (protein)
chain: AYPIPDSSPLLQFGGQVRQRYLYTDDDQDTEAHLEIREDGTVVGAAHRSPESLLELKALKPGVIQILGVKASRFLCQQPDGALYGSPHFDPEACSFRELLLEDGYNVYQSEAHGLPLRLPQKDSPNQDATSWGPVRFLPMPGLLHEPQDQAGFLPPEPPDVGSSDPLSMVEPLQGRSPSYAS
DNA synthesis (thymidine incorporated into the cells): did not react with FGF21
